The record followed here is patent US20220305003A1, “METHODS OF TREATING CANCER WITH AN INHIBITOR OF ZNF827” (CHILDREN'S MEDICAL RESEARCH INSTITUTE, priority 2019, published 2022).

Series [1] concerns the target T1, ZNF827 ZnF4-9 deleted (Homo sapiens).
T1 chain: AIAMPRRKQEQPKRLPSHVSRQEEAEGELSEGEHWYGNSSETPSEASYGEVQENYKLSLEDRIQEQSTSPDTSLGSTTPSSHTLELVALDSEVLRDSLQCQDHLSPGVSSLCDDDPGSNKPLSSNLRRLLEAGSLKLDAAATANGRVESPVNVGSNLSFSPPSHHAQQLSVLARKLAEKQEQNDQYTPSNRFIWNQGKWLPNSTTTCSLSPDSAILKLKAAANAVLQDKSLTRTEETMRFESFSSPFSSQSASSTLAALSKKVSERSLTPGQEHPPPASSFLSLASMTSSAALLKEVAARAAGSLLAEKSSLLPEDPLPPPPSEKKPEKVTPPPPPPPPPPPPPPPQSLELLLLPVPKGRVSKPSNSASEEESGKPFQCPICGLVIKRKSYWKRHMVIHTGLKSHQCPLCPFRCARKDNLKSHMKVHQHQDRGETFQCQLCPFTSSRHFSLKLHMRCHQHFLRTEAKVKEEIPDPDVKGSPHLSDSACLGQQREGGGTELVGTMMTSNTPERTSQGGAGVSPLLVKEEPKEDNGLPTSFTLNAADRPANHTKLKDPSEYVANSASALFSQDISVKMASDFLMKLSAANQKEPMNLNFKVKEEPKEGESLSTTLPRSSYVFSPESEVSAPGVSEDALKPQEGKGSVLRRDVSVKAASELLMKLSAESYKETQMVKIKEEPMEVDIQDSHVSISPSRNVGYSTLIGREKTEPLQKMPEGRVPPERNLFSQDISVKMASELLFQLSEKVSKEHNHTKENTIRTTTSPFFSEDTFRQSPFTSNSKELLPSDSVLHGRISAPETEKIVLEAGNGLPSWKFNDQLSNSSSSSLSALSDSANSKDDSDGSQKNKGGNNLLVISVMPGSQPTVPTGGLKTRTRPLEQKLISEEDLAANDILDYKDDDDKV
Briefly: EMSA; 0.8 mM ZnCl2, 100 mM KCl, poly(dI:dC), on ice. To be noted: tags: HaloTag (pHTN), expressed in HEK 293T, tag removed by HaloTEV cleavage; label: 32P (gamma). The procedure:
(§1) Purified proteins were quantified using a BCA assay using the Pierce™ BCA Protein Assay Kit according to the manufacturer's instructions. Equal amounts of purified proteins were incubated in binding buffer (20 mM HEPES-KOH, pH7.9, 100 mM KCl, 0.8 mM ZnCl₂, 0.2 mM EDTA, 5% glycerol, 0.5 mM DTT and 0.5 mM PMSF) with 6.25 μg/mL poly (dI:dC) and 50 ng/μL BSA on ice for 20 minutes. ˜0.12 nM (˜2.5 fmol) γ-³²P labelled DNA oligonucleotide (see Table 3) probes were added to samples and incubated on ice for another 30 minutes. Binding reactions were loaded onto an 8% native acrylamide/bisacrylamide (19:1, Biorad) gel pre-run at 100V in 0.5× TB buffer (89 mM Tris, 89 mM boric acid) for 20 minutes. Gels were electrophoresed at 150 V for 150 minutes at 4° C., dried at 65° C. for 45 minutes, and then exposed to a Phosphor screen overnight. Gel images were obtained by scanning the screens with a Typhoon FLA9500 Imager (GE Life Sciences).
In general terms: In EMSA bound probe runs differently from free probe, usually more slowly.

For series [2], the target named is T2, ZNF827 full length (Homo sapiens, UniProt Q17R98 SEQ:1-1081).
T2 sequence: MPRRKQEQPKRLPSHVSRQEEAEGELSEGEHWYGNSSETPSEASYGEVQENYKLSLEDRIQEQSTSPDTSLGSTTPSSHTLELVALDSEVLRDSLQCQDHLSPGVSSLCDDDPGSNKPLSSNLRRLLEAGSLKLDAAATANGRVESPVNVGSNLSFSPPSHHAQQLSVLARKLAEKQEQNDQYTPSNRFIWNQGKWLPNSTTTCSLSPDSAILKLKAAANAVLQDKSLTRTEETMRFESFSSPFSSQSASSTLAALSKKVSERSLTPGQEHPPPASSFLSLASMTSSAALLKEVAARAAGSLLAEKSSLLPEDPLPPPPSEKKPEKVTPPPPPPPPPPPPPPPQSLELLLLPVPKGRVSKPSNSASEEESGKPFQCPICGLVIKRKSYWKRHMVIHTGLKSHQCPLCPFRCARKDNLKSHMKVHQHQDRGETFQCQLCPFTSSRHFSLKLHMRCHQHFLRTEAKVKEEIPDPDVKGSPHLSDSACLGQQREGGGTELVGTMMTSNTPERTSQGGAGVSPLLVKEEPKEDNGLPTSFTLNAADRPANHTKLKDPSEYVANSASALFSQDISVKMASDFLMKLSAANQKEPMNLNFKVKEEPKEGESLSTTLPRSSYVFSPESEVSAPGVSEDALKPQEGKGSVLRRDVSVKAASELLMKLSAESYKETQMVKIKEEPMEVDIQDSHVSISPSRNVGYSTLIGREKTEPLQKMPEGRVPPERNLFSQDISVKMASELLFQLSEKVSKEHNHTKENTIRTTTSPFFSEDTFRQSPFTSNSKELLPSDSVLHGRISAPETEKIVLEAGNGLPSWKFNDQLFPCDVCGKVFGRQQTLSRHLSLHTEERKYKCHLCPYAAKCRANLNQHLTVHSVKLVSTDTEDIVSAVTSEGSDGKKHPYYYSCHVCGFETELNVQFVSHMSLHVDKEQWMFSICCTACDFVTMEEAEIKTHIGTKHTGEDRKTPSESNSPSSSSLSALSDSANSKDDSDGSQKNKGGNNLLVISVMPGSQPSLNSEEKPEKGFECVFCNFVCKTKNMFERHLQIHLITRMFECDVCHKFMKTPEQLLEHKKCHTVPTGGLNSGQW
Described as above. To be noted: tags: HaloTag (pHTN), expressed in HEK 293T, tag removed by HaloTEV cleavage; label: 32P (gamma). As for the experimental part:
as §1

With TTAGGGTTAGGGTTAGGG (ssDNA) [ss telomeric G rich oligo], the binding result in series [1] and in series [2] was “binds” throughout.
